Source: patent US20090022738A1 (MICROMET, published 2009)
Positions count from the first letter of the chain named.

T1: CD19 (human, UniProt P15391 20-556)
T1 construct: whole, on cells; also called CD19 on NALM-6 cells
T1 sequence (looked up): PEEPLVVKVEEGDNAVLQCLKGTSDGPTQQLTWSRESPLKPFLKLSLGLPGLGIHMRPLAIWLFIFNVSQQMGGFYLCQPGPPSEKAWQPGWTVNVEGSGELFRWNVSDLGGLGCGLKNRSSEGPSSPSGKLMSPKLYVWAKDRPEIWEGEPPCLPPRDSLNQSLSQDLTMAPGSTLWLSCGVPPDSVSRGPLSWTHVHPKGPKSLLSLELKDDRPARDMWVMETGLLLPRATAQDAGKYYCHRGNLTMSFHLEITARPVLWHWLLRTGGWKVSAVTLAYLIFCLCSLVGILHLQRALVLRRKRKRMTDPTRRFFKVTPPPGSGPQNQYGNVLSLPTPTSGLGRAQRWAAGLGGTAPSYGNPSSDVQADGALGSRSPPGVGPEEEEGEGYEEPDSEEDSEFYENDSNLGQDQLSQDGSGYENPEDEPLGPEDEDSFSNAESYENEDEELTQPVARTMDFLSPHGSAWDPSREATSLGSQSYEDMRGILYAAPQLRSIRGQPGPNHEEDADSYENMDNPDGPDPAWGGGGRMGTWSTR

T2: Epithelial cell adhesion molecule (EpCAM) (human, UniProt P16422 24-314)
T2 construct: whole, on cells; also called 17-1A antigen; KSA
T2 sequence (looked up): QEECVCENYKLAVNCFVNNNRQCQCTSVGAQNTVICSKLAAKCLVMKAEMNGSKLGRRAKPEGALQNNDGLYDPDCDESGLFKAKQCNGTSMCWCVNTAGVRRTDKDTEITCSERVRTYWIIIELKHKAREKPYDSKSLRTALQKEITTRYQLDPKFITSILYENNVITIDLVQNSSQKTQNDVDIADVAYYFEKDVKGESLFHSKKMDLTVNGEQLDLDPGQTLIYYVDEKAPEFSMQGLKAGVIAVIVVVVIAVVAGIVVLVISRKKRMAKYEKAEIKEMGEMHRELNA

B1: anti-CD19×anti-CD3 (VH3/VL3) (SEQ ID NO.:188) (bispecific antibody)
chain: DIQLTQSPASLAVSLGQRATISCKASQSVDYDGDSYLNWYQQIPGQPPKLLIYDASNLVSGIPPRFSGSGSGTDFTLNIHPVEKVDAATYHCQQSTEDPWTFGGGTKLEIKGGGGSGGGGSGGGGSQVQLQQSGAELVRPGSSVKISCKASGYAFSSYWMNWVKQRPGQGLEWIGQIWPGDGDTNYNGKFKGKATLTADESSSTAYMQLSSLASEDSAVYFCARRETTTVGRYYYAMDYWGQGTTVTVSSGGGGSDVQLVQSGAEVKKPGASVKVSCKASGYTATRYTMHWVRQAPGQGLEWIGYINPSRGYTNYAQKLQGRVTMTTDTSTSTAYLQMNSLKTEDTAVYYCARYYDDHYCLDYWGQGTTVTVSSGEGTSTGSGGSGGSGGADDIVLTQSPATLSLSPGERATLTCRASSSVSYMNWYQQKPGKAPKRWIYDTSKVASGVPARFSGSGSGTDYSLTINSLEAEDAATYYCQQWSSNPLTFGGGTKVEIK
notes: As m4: bispecific single chain, His-tagged; also called pEF anti-CD19×anti-CD3 (VH3/VL3)
B2: anti-CD19×anti-CD3 (VH2/VL3) (SEQ ID NO.:182) (bispecific antibody)
chain: B1 chain with L336M, Q337E, M338L, N339S, K342R, T343S, V348T
notes: As m4: bispecific single chain, His-tagged; also called pEF anti-CD19×anti-CD3 (VH2/VL3)
B3: anti-CD19×anti-CD3 (VH3/VL2) (SEQ ID NO.:186) (bispecific antibody)
chain: B1 chain with T414S, S419Q
notes: As m4: bispecific single chain, His-tagged; also called pEF anti-CD19×anti-CD3 (VH3/VL2)
B4: anti-CD19×anti-CD3 (VH5/VL3) (SEQ ID NO.:194) (bispecific antibody)
chain: DIQLTQSPASLAVSLGQRATISCKASQSVDYDGDSYLNWYQQIPGQPPKLLIYDASNLVSGIPPRFSGSGSGTDFTLNIHPVEKVDAATYHCQQSTEDPWTFGGGTKLEIKGGGGSGGGGSGGGGSQVQLQQSGAELVRPGSSVKISCKASGYAFSSYWMNWVKQRPGQGLEWIGQIWPGDGDTNYNGKFKGKATLTADESSSTAYMQLSSLASEDSAVYFCARRETTTVGRYYYAMDYWGQGTTVTVSSGGGGSDVQLVQSGAEVKKPGASVKVSCKASGYTFTRYTMHWVRQAPGQGLEWIGYINPSRGYTNYADSVKGRFTITTDKSTSTAYMELSSLRSEDTATYYCARYYDDHYCLDYWGQGTTVTVSSGEGTSTGSGGSGGSGGADDIVLTQSPATLSLSPGERATLTCRASSSVSYMNWYQQKPGKAPKRWIYDTSKVASGVPARFSGSGSGTDYSLTINSLEAEDAATYYCQQWSSNPLTFGGGTKVEIK
notes: As m4: bispecific single chain, His-tagged; also called pEF anti-CD19×anti-CD3 (VH5/VL3)
B5: deimmunized anti-CD3 (VH5/VL2)×3-1 (SEQ ID NO.:31) (bispecific antibody)
chain: DVQLVQSGAEVKKPGASVKVSCKASGYTFTRYTMHWVRQAPGQGLEWIGYINPSRGYTNYADSVKGRFTITTDKSTSTAYMELSSLRSEDTATYYCARYYDDHYCLDYWGQGTTVTVSSGEGTSTGSGGSGGSGGADDIVLTQSPATLSLSPGERATLSCRASQSVSYMNWYQQKPGKAPKRWIYDTSKVASGVPARFSGSGSGTDYSLTINSLEAEDAATYYCQQWSSNPLTFGGGTKVEIKSGGGGSEVQLLEQSGAELVKPGASVKISCKASGYAFTNYWLGWVKQRPGHGLEWIGDLFPGSGNTHYNERFRGKATLTADKSSSTAFMQLSSLTSEDSAVYFCARLRNWDEAMDYWGQGTTVTVSSGGGGSGGGGSGGGGSELVMTQSPSYLAASPGETITINCRASKSISKYLAWYQEKPGKTNKLLIYSGSTLQSGIPSRFSGSGSGTDFTLTISSLEPEDFAMYYCQQHNEYPYTFGGGTKLEIK
notes: Bispecific single chain, VH(CD3)-VL(CD3)-VH(EpCAM)-VL(EpCAM); detected by anti-His
B6: deimmunized anti-CD3 (VH5/VL2)×5-10 (SEQ ID NO.:37) (bispecific antibody)
chain: DVQLVQSGAEVKKPGASVKVSCKASGYTFTRYTMHWVRQAPGQGLEWIGYINPSRGYTNYADSVKGRFTITTDKSTSTAYMELSSLRSEDTATYYCARYYDDHYCLDYWGQGTTVTVSSGEGTSTGSGGSGGSGGADDIVLTQSPATLSLSPGERATLSCRASQSVSYMNWYQQKPGKAPKRWIYDTSKVASGVPARFSGSGSGTDYSLTINSLEAEDAATYYCQQWSSNPLTFGGGTKVEIKSGGGGSEVQLLEQSGAELVRPGTSVKISCKASGYAFTNYWLGWVKQRPGHGLEWIGDIFPGSGNIHYNEKFKGKATLTADKSSSTAYMQLSSLTFEDSAVYFCARLRNWDEPMDYWGQGTTVTVSSGGGGSGGGGSGGGGSELVMTQSPSSLTVTAGEKVTMSCKSSQSLLNSGNQKNYLTWYQQKPGQPPKLLIYWASTRESGVPDRFTGSGSGTDFTLTISSVQAEDLAVYYCQNDYSYPLTFGAGTKLEIK
notes: Bispecific single chain, VH(CD3)-VL(CD3)-VH(EpCAM)-VL(EpCAM); expressed in CHO with a leader peptide; detected by anti-His

Columns and labels:
CD19 = target: T1, CD19; experiment: FACS, crude supernatant on CD19-positive NALM-6 cells; negative control MFI ca. 3
Procedure: (§1) In order to analyze the binding efficacy of the deimmunized constructs to CD3 and CD19 a FACS-based assay was performed. Initially, crude supernatants were tested for binding on CD3-enriched PBMCs or CD19-positive NALM-6 cells. Cells were incubated with non-diluted supernatants for 30 minutes at 8° C. Upon two wash steps the cells were labeled with an anti-His antibody (Qiagen) under the same conditions. After additional wash steps binding of the constructs was detected with a FITC-conjugated sheep anti-mouse antibody (Sigma). Cells were analyzed with a FACS Calibur cytometer (B&D). As controls supernatants of anti-CD19×anti-CD3 and GFP-transfected cells were included. […] The positive control, which was a non-deimmunized anti-CD19×anti-CD3 construct reached a MFI of around 60 showing that the deimmunized constructs comprising anti-CD3 (VH5/VL1) (SEQ ID NO.:190), anti-CD3 (VH5/VL2) (SEQ ID NO.:192), anti-CD3 (VH5/VL3) (SEQ ID NO.:194), anti-CD3 (VH7/VL1) (SEQ ID NO.:196), anti-CD3 (VH7/VL2) (SEQ ID NO.:198) and anti-CD3 (VH7/VL3) (SEQ ID NO.:200) bound CD3 with extremely high efficacy.
The FACS-based binding assay was also carried out for CD19. In this experiment CD19 and a secondary antibody was as a negative control. In this experiment, all assayed constructs achieved a MFI of at least 80 while the MFI of the negative control was ca. 3.

human CD3 [1] = target: T3, human CD3 (human, UniProt P07766 23-207; P04234 22-171; P09693 23-182); experiment: FACS on CD3-enriched PBMCs
T3 construct: whole, on cells; also called CD3 antigen; human CD3 complex

human CD3 [2] = target: T3, human CD3; experiment: FACS, second experiment, crude supernatant on CD3-enriched PBMCs
Procedure: as §1

human CD3 [3] = target: T3, human CD3; experiment: FACS, non-diluted crude supernatant on CD3-enriched PBMCs; anti-His + FITC anti-mouse
Procedure: as §1

human CD3 [4] = target: T3, human CD3; experiment: FACS, 10 µg/ml on Jurkat cells
Procedure: (§2) Binding of the bispecific single chain molecules with anti-CD3 part in N-terminal orientation to EpCAM and CD3 were confirmed by FACS analyses. For that purpose the EpCAM positive human gastric cancer cell line Kato III (ATCC HTB-103) was used.
(§3) Cells were cultured according to the recommendations of the supplier and a number of 200000 cells was incubated with 10 μg/ml of the construct in 50 μl PBS with 2% FCS (fetal calf serum). The binding of the construct was detected with an anti-His antibody (Penta-His Antibody, obtained from Qiagen, Hilden, FRG) at 2 μg/ml in PBS with 2% FCS. […] The samples were measured on a FACSscan (BD biosciences, Heidelberg, FRG).

[5] = target: T2, Epithelial cell adhesion molecule …; experiment: FACS, 10 µg/ml on EpCAM positive Kato III cells
Procedure: as §2, §3

| Binder | MFI (CD19) | binding result (human CD3 [1]) | MFI (human CD3 [2]) | MFI (human CD3 [3]) | fold over the negative control (secondary antibody only, MFI ca. 3.5) (human CD3 [3]) | binding result (human CD3 [4]) | binding result [5] |
| --- | --- | --- | --- | --- | --- | --- | --- |
| B1 | ≥ 80 MFI | no binding (tested: non-diluted supernatant) | ~6 MFI | – | – | – | – |
| B2 | ≥ 80 MFI | no binding (tested: non-diluted supernatant) | ~6 MFI | – | – | – | – |
| B3 | ≥ 80 MFI | no binding (tested: non-diluted supernatant) | ~6 MFI | – | – | – | – |
| B4 | ≥ 80 MFI | – | – | ≥ 90 MFI | ~25 fold | – | – |
| B5 | – | – | – | – | – | binds | binds |
| B6 | – | – | – | – | – | binds | binds |
